Experiment [1] addresses ACKR3 wild type, Tango assay construct (UniProt P25106).
Experiment [2] has as its target ACKR3 wild type, expressed in cells for the NanoBiT β-arrestin recruitment assay (UniProt P25106).
The target of experiment [3] is ACKR3 wild type, expressed in cells for the NanoBiT β-arrestin recruitment assay (UniProt P25106 1-362). In words: cell-based or functional assay.

The source of these data is PMC9574477 (Science (New York, N.Y.), 2022).

Sequence of CXCL12 (P48061 22-93): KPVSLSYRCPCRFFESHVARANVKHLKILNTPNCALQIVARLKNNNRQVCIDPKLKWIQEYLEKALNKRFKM
Sequence of ACKR3 wild type, expressed in cells for the NanoBiT β-arrestin recruitment assay (UniProt P25106) (P25106 whole entry): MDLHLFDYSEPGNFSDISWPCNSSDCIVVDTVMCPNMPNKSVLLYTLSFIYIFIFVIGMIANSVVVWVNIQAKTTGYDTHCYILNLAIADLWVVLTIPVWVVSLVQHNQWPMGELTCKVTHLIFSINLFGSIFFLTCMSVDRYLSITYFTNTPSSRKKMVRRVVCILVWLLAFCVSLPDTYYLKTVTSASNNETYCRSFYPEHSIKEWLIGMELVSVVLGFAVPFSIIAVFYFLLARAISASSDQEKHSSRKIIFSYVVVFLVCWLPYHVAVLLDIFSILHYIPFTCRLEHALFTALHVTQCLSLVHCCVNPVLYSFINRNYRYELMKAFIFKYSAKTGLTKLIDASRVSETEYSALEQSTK
Sequence of ACKR3 wild type, Tango assay construct (P25106 whole entry): as above
Sequence of ACKR3 wild type, expressed in cells for the NanoBiT β-arrestin recruitment assay (UniProt P25106 1-362) (P25106 whole entry): as above

In experiment [1], “CXCL12 (from UniProt P48061 22-93) (ligand)” returned a β-arrestin-2 recruitment to ACKR3, Tango assay, EC50 of 3.9 nM. Also, in experiment [2], the β-arrestin-2 recruitment to ACKR3, NanoBiT, EC50 was 0.75 nM.

For the molecule FGGFMRRK [LIH383], the “β-arrestin-2 recruitment to ACKR3, NanoBiT, EC50” value in experiment [3] was 4.8 nM.
